The values that follow come from patent US10143754B2, “Method for peroral delivery of insulin and its analogues for therapeutic usage” (TRANSGENE BIOTEK LIMITED, priority 2011, dated 2018).

For data set [1] the following is noted: acid pH; cited from earlier work.
For data set [2] the following is noted: rat, in vivo, iv.
Data set [3] concerns Streptozotocin induced diabetic Wistar or Sprague Dawley rats. The data set is described as follows: Modification of blood/serum glucose of diabetic rats. To be noted: IV administration, FIG. 1. The class given is in vivo, rat.

With Insulin Glargine, the solubility entry in data set [1] is recorded as “soluble at acid pH”.

Regarding Insulin Lispro, the plasma insulin levels result in data set [2] is “increased in accordance with the reduction in serum glucose levels but reduced rapidly”. Further, in data set [3], the “duration of hypoglycemic effect” value is reported as “short lived” and the “reduction of blood glucose levels” value is recorded as “rapid reduction of blood glucose levels”.
